Measurements taken from patent US20090149339A1 (published 2009).
Ends that are not written are not given here. * marks the point of attachment. Biotin = O=C1N[C@H]2[C@H](CS[C@H]2CCCCC(=O)*)N1

Assays:
Assay in all cases: A/G assays
[1] = biological target: T1, GST-CASK PDZ domain fusion protein (CASK AA495-584; PDZ domain 1 of 1) (mouse, UniProt P08515 1-218 = GST)
T1 construct: also called mCASK

[2] = biological target: GST-LIM PDZ domain fusion protein (Human LIM protein AA29-112; PDZ domain 1 of 1) (human, UniProt P08515 1-218 = GST)
Chain of GST-LIM PDZ domain fusion protein (Human LIM protein AA29-112; PDZ domain 1 of 1) (P08515 1-218, tags or fused parts left off): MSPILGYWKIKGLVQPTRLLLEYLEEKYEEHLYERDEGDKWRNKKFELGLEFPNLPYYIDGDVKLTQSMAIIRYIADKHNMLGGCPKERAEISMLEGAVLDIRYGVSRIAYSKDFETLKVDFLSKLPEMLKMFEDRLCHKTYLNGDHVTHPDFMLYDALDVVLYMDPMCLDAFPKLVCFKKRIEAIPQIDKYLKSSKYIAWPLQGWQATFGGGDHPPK

[3] = biological target: GST-LIMK2 PDZ domain fusion protein (human LIM domain kinase 2 AA185-275; PDZ domain 1 of 1) (human, UniProt P08515 1-218 = GST)
[4] = biological target: T2, GST-MPP2 PDZ domain fusion protein (maguk p55 subfamily member 2 (DLG2) AA185-273; PDZ domain 1 of 1) (UniProt P08515 1-218 = GST)
T2 construct: also called MMP2
T2 sequence (P08515 1-218, tags or fused parts left off): as above

[5] = biological target: GST-NOS1 PDZ domain fusion protein (human neuronal nitric oxide synthase; PDZ domain 1 of 1) (human, UniProt P08515 1-218 = GST)
[6] = biological target: GST-AF6 PDZ domain fusion protein (af-6 protein AA985-1077; PDZ domain 1 of 1) (UniProt P08515 1-218 = GST)
Chain of GST-AF6 PDZ domain fusion protein (af-6 protein AA985-1077; PDZ domain 1 of 1) (P08515 1-218, tags or fused parts left off): as above

[7] = biological target: GST-PTN-4 PDZ domain fusion protein (protein-tyrosine phosphatase meg1 AA774-862; PDZ domain 1 of 1) (UniProt P08515 1-218 = GST)
Chain of GST-PTN-4 PDZ domain fusion protein (protein-tyrosine phosphatase meg1 AA774-862; PDZ domain 1 of 1) (P08515 1-218, tags or fused parts left off): as above

[8] = biological target: GST-prIL16 PDZ domain fusion protein (putative interleukin 16 precursor AA170-383; PDZ domains 1-2 of 2) (UniProt P08515 1-218 = GST)
Chain of GST-prIL16 PDZ domain fusion protein (putative interleukin 16 precursor AA170-383; PDZ domains 1-2 of 2) (P08515 1-218, tags or fused parts left off): as above

[9] = biological target: T3, GST-41.8 kD PDZ domain fusion protein (hypothetical 41.8 kD protein AA4-85; PDZ domain 1 of 1) (UniProt P08515 1-218 = GST)
T3 construct: also called hypoth
T3 sequence (P08515 1-218, tags or fused parts left off): as above

[10] = biological target: T4, GST-KIAA0559 PDZ domain fusion protein (KIAA0559 AA766-870; PDZ1 of 1) (UniProt P08515 1-218 = GST)
T4 construct: also called K559
T4 sequence (P08515 1-218, tags or fused parts left off): as above

[11] = biological target: GST-MPP1 PDZ domain fusion protein (55 Kd erythrocyte membrane protein AA101-186; PDZ domain 1 of 1) (UniProt P08515 1-218 = GST)
Chain of GST-MPP1 PDZ domain fusion protein (55 Kd erythrocyte membrane protein AA101-186; PDZ domain 1 of 1) (P08515 1-218, tags or fused parts left off): as above

[12] = biological target: T5, GST-RGS12 PDZ domain fusion protein (human regulator of G-protein signalling 12 AA35-103; PDZ domain 1 of 1) (human, UniProt P08515 1-218 = GST)
T5 construct: also called RSG12
T5 sequence (P08515 1-218, tags or fused parts left off): as above

[13] = biological target: T6, GST-KIAA0316 PDZ domain fusion protein (KIAA0316 AA197-284; PDZ domain 1 of 1) (UniProt P08515 1-218 = GST)
T6 construct: also called K316
T6 sequence (P08515 1-218, tags or fused parts left off): as above

[14] = biological target: GST-DVL1 PDZ domain fusion protein (human dishevelled segment polarity protein homolog AA248-340); PDZ domain … (human, UniProt P08515 1-218 = GST)
Chain of GST-DVL1 PDZ domain fusion protein (human dishevelled segment polarity protein homolog AA248-340); PDZ domain … (P08515 1-218, tags or fused parts left off): as above

[15] = biological target: T7, GST-TAX40 PDZ domain fusion protein (human tax interaction protein 40 AA35-137; PDZ domain 1 of 1) (human, UniProt P08515 1-218 = GST)
T7 construct: also called TX 40
T7 sequence (P08515 1-218, tags or fused parts left off): as above

[16] = biological target: GST-TIAM1 PDZ domain fusion protein (T-lymphoma invasion and metastasis inducing protein 1 AA1001-1088); PDZ 1 … (UniProt P08515 1-218 = GST)
Chain of GST-TIAM1 PDZ domain fusion protein (T-lymphoma invasion and metastasis inducing protein 1 AA1001-1088); PDZ 1 … (P08515 1-218, tags or fused parts left off): as above

[17] = biological target: T8, GST-KIAA0303 PDZ domain fusion protein (KIAA0303 AA652-742; PDZ domain 1 of 1) (UniProt P08515 1-218 = GST)
T8 construct: also called K303
T8 sequence (P08515 1-218, tags or fused parts left off): as above

[18] = biological target: T9, GST-CBP PDZ domain fusion protein (Cytohesin binding protein HE AA85-175; PDZ domain 1 of 1) (UniProt P08515 1-218 = GST)
T9 construct: also called Prot
T9 sequence (P08515 1-218, tags or fused parts left off): as above

[19] = biological target: GST-MINT3 PDZ domain fusion protein (human MINT3 AA11-52; PDZ domain 1 of 1) (human, UniProt P08515 1-218 = GST)
Chain of GST-MINT3 PDZ domain fusion protein (human MINT3 AA11-52; PDZ domain 1 of 1) (P08515 1-218, tags or fused parts left off): as above

[20] = biological target: T10, GST-TAX2 PDZ domain fusion protein (human tax interaction protein 2 AA54-140; PDZ domain 1 of 1) (human, UniProt P08515 1-218 = GST)
T10 construct: also called TX 2

[21] = biological target: GST-PSD95 PDZ domain fusion protein (human post-synaptic density protein 95 AA387-724; PDZ domains 1-3 of 3) (human, UniProt P08515 1-218 = GST)
Chain of GST-PSD95 PDZ domain fusion protein (human post-synaptic density protein 95 AA387-724; PDZ domains 1-3 of 3) (P08515 1-218, tags or fused parts left off): as above

[22] = biological target: T11, GST-NeDLG PDZ domain fusion protein (presynaptic protein sao102, neuroendocrine-dlg; PDZ domains 1-2 of 3) (UniProt P08515 1-218 = GST)
T11 construct: also called NeDLG1
T11 sequence (P08515 1-218, tags or fused parts left off): as above

[23] = biological target: T12, GST-TAX33 PDZ domain fusion protein (tax interaction protein 33 AA73-162; PDZ domain 1 of 1) (UniProt P08515 1-218 = GST)
T12 construct: also called TX33
T12 sequence (P08515 1-218, tags or fused parts left off): as above

[24] = biological target: T13, GST-SYN1a PDZ domain fusion protein (alpha1-syntrophin AA96-189; PDZ domain 1 of 1) (UniProt P08515 1-218 = GST)
T13 construct: also called SYN 1 alpha; SYNTR 1 alpha
T13 sequence (P08515 1-218, tags or fused parts left off): as above

[25] = biological target: T14, GST-TAX43 PDZ domain fusion protein (human tax interaction protein 43 AA15-85; PDZ domain 1 of 1) (human, UniProt P08515 1-218 = GST)
T14 construct: also called TX 43

Measured: binding result

T1 sequence (P08515 1-218, tags or fused parts left off): as above

Biotin-SSKSKSSEESQTFFGLYKL [FasLigand C-terminal PL peptide AA23L-M, biotinylated]
no binding: all assays above

Biotin-PSWRRSSLSESENATSLTTF [BLR-1 C-terminal PL peptide AA45L, biotinylated]
no binding: all assays above

Biotin-SSSQSLESDGSYQKPSYIL [CD62E C-terminal PL peptide AA48L, biotinylated]
no binding: all assays above

Biotin-LERVSSTSPSTGEHELSAGF [CC CKR-1R C-terminal PL peptide AA41L, biotinylated]
no binding: all assays above
